Results as given in US12565517B2, “Cyclic peptide having CTLA-4 inhibitory activity and use thereof” (GeneFrontier Corporation, priority 2019, dated 2026).

Target: T1, CTLA-4 (Homo sapiens, UniProt P16410)
T1 sequence (P16410 36-223): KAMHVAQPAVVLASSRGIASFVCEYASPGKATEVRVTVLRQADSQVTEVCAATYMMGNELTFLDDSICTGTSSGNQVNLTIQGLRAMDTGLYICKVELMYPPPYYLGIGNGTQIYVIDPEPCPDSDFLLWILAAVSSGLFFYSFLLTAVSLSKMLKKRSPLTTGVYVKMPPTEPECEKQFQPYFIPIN
Test: ELISA binding of clones after Affinity Maturation with random library (Tables 10, 11)
Method: After each round of Affinity Maturation, the cyclic peptide genes were recovered and subcloned into pET-Mal vector (FIG. 2) in the same manner as described above to perform base sequence analysis. For the 94 single colonies analyzed for sequence, E. coli transformants were inoculated into 100 μL of 2×YT medium containing ampicillin (final concentration 50 μg/mL), incubated at 37° C. for 3-5 hours (OD600=0.5-0.8), then added with IPTG (final concentration 0.5 mM) and incubated at 25° C. overnight. 10 μL of E. coli cultured medium was added with 90 μL of PBS and 40 μL of lysis reagent (20 μL BugBuster Protein Extraction Reagent (Novagen), 20 μL Lysozyme solution 2.5 mg/mL) to lyse E. coli cells for 1 hour at room temperature. The cell lysate was added with 40 μL of 12.5% skim milk solution (TBST) and blocked for 1 hour at room temperature. In parallel, antigen protein was immobilized overnight at 4° C. in 384-well plates at 100 ng/20 μL per well, and each well was washed twice with 100 μL/well of TBST, added with 100 μL/well of 5% skim milk solution (TBST) for blocking for 1 hour at room temperature, and washed twice with 100 μL/well of TBST to obtain antigen-immobilized plates. 20 μL/well of blocking-treated E. coli extract was added to the antigen-immobilized plates and gently stirred at room temperature using a plate mixer. After 1 hour, the plates were washed 5 times with 100 μL/well of TBST, 20 μL/well of anti-FLAG M2-HRP conjugate (1:2000 dilution, Sigma) was added and gently stirred on a plate mixer for 1 hour at room temperature. The plates were washed 5 times with 100 μL/well of TBST, and binding of cyclic peptides to the antigen was detected by 20 μL/well of chromogenic substrate (0.4 mg/mL 3,3′,5,5′-Tetramethyl-benzidine, 0.01% hydrogen peroxide). After 15 minutes of reaction at room temperature, the reaction was stopped with 20 μL/well of 2N HCl, and absorbance at 450 nm was measured using a plate reader (infinite F200: TECAN) (Table 5).
Oligo DNAs of a library were synthesized (see below), in which amino acid residues (positions 1, 4, 8, 10, +1 and +2) (corresponding to X1, […], X8, X10, X+1 and X+2) other than those essential or advantageous for CTLA-4 binding (2H, 3P, 5L, 6P, 7I, 9S, 11H, 12F) identified by alanine scanning were randomized (NNS).
Affinity Maturation was performed in the same manner as described above. The amount of biotinylated CTLA-4 immobilized on the magnetic beads was 10 pmol in the 1st round, 2 pmol in the 2nd round, and 1 pmol in the 3nd-5th rounds, respectively. The washing period was 2 hours for the 1st round, 19 hours for the 2nd round, 67 hours for the 3nd round, 140 hours for the 4th round, and 340 hours for the 5th round. Washing frequency was 1 time (2 hours) in the 1st round, 2 times (every 10 hours) in the 2nd round, 6 times (every 10 hours) in the 3rd round, 14 times (every 10 hours) in the 4th round, and 36 times (every 10 hours) in the 5th round.

[1] = CTLA-4 binding ELISA of clones after Affinity Maturation from random (NNS) library, signal/noise ratio, clones of 4th or 5th round
[2] = S/N ratio of CTLA-4 binding in ELISA, clones from 4th or 5th round of Affinity Maturation from random (NNS) library

ELISA S/N(SA) [1]	ELISA S/N(SA) [2]	Substance
32.3		C4m#19-5th4w-NN6-81 (GGCFHPYLPIRSWHFCSR; C4m#19-5th4w-NN6-81)
9.1		C4m3127-4th-NNS6-85 (GGCGHPFLPIFSSHFCPL; C4m3127-4th-NNS6-85) [Clone C4m3127-4th-NNS6-85]
	3.4	C4m3127-4th-NNS6-95 (GGCWHPVLPIRSGHFCSR; C4m3127-4th-NNS6-95) [Clone C4m3127-4th-NNS6-95]
6.4		C4m#19-5th2w-NNS6-84 (GGCWHPFLPIVSFHFCPF; C4m#19-5th2w-NNS6-84)
17.4		C4m#19-5th4w-NN6-71 (GGCPHPWLPIASVHFCPF; C4m#19-5th4w-NN6-71)
9.4		C4m#19-5th2w-NNS6-33 (GGCRHPFLPIWSFHFCWG; C4m#19-5th2w-NNS6-33)
31.6		C4m#19-5th4w-NN6-4 (GGCRHPYLPIVSRHFCPF; C4m#19-5th4w-NN6-4)
15.3		C4m#19-5th2w-NNS6-75 (GGCWHPWLPIKSPHFCAL; C4m#19-5th2w-NNS6-75)
16.5		C4m#19-5th4w-NN6-63 (GGCWHPYLPILSRHFCQA; C4m#19-5th4w-NN6-63)
9.2		C4m#19-5th2w-NNS6-79 (GGCRHPFLPIVSRHFCVA; C4m#19-5th2w-NNS6-79)
27.1		C4m#19-5th4w-NN6-56 (GGCWHPFLPIQSLHFCGV; C4m#19-5th4w-NN6-56)
30.0		C4m#19-5th4w-NN6-91 (GGCMHPYLRIISPHFCRG; C4m#19-5th4w-NN6-91)
18.7		C4m#19-5th4w-NN6-58 (GGCRHPFLPISSIHFCCI; C4m#19-5th4w-NN6-58)
24.9		C4m#19-5th4w-NN6-69-1 (GGCSHPFLPILSVHFCPF; C4m#19-5th4w-NN6-69-1)
22.1		C4m#19-5th4w-NN6-51 (GGCWHPYLPIVSWHFCSR; C4m#19-5th4w-NN6-51)
16.1		C4m#19-5th4w-NN6-6 (GGCMHPFLPIKSSHFCRK; C4m#19-5th4w-NN6-6)
4.8		C4m#19-5th2w-NNS6-43 (GGCRHPFLPIWSSHFCAA; C4m#19-5th2w-NNS6-43)
30.2		C4m#19-5th4w-NN6-23 (GGCRHPHLPIWSWHFCGR; C4m#19-5th4w-NN6-23)
13.5		C4m3127-4th-NNS6-48 (GGCFHPWLPIASWHFCGR; C4m3127-4th-NNS6-48) [Clone C4m3127-4th-NNS6-48]
29.7		C4m#19-5th4w-NN6-19 (GGCRHPYLPIWSIHFCQK; C4m#19-5th4w-NN6-19)

ELISA S/N(SA) [1]	ELISA S/N(SA) [2]	Substance
4.0		C4m#19-5th4w-NN6-49 (GGCMHPYLPIRSFHFCSC; C4m#19-5th4w-NN6-49)
22.1		C4m#19-5th4w-NN6-11 (GGCRHPFLPIWSHHFCVC; C4m#19-5th4w-NN6-11)
22.9		C4m3127-4th-NNS6-90 (GGCKHPVLPIVSLHFCPW; C4m3127-4th-NNS6-90) [Clone C4m3127-4th-NNS6-90]
20.0		C4m3127-4th-NNS6-72 (GGCVHPYLPISSIHFCSM; C4m3127-4th-NNS6-72) [Clone C4m3127-4th-NNS6-72]
4.4		C4m3127-4th-NNS6-20 (GGCLHPFLPILSLHFCPF; C4m3127-4th-NNS6-20) [Clone C4m3127-4th-NNS6-20]
5.1		C4m#19-5th2w-NNS6-70 (GGCRHPFLPIVSWHFCAA; C4m#19-5th2w-NNS6-70)
21.1		C4m#19-5th2w-NNS6-25 (GGCKHPFLPISSHHFCPY; C4m#19-5th2w-NNS6-25)
27.9		C4m#19-5th4w-NN6-78 (GGCWHPALPIRSWHFCPR; C4m#19-5th4w-NN6-78)
30.5		C4m#19-5th4w-NN6-77 (GGCRHPFLPIVSTHFCSR; C4m#19-5th4w-NN6-77)
27.7		C4m#19-5th4w-NN6-57 (GGCMHPYLPIVSVHFCPC; C4m#19-5th4w-NN6-57)
10.3		C4m#19-5th2w-NNS6-6 (GGCWHPYLPILSLHFCQR; C4m#19-5th2w-NNS6-6)
4.6		C4m#19-5th2w-NNS6-68 (GGCLHPWLPIVSCHFCPR; C4m#19-5th2w-NNS6-68)
4.7		C4m3127-4th-NNS6-7 (GGCRHPFLPIRSPHFCGS; C4m3127-4th-NNS6-7) [Clone C4m3127-4th-NNS6-7]
34.2		C4m#19-5th4w-NN6-47 (GGCPHPWLPIFSRHFCPV; C4m#19-5th4w-NN6-47)
23.2		C4m3127-4th-NNS6-28 (GGCLHPFLPIFSSHFCAL; C4m3127-4th-NNS6-28) [Clone C4m3127-4th-NNS6-28]
6.3		C4m#19-5th2w-NNS6-28 (GGCAHPYLPIRSVHFCPC; C4m#19-5th2w-NNS6-28)
35.5		C4m#19-5th4w-NN6-70 (GGCMHPFLPIRSMHFCPL; C4m#19-5th4w-NN6-70)
35.6		C4m#19-5th4w-NN6-39 (GGCWHPFLPIRSLHFCPR; C4m#19-5th4w-NN6-39)
27.6		C4m#19-5th4w-NN6-24 (GGCWHPWLPIYSHHFCPI; C4m#19-5th4w-NN6-24)
22.9		C4n#19-5th2w-NNS6-71 (GGCRHPYLPIASPHFCPG; left off: large carriers; small tags and cut ends)

ELISA S/N(SA) [1]	ELISA S/N(SA) [2]	Substance
29.5		C4m#19-5th4w-NN6-55-4 (GGCVHPSLPILSVHFCPR; C4m#19-5th4w-NN6-55-4)
31.1		C4m#19-5th2w-NNS6-21 (GGCWHPFLPIRSSHFCPS; C4m#19-5th2w-NNS6-21)
32.2		C4m#19-5th4w-NN6-53 (GGCRHPFLPIYSVHFCAC; C4m#19-5th4w-NN6-53)
11.0		C4m#19-5th2w-NNS6-45 (GGCRHPFLPIWSVHFCWR; C4m#19-5th2w-NNS6-45)
5.9		C4m#19-5th4w-NN6-61 (GGCPHPMLPIFSVHFCPY; C4m#19-5th4w-NN6-61)
32.2		C4m#19-5th4w-NN6-34 (GGCFHPFLPIRSDHFCSR; C4m#19-5th4w-NN6-34)
5.6		C4m#19-5th4w-NN6-75 (GGCWHPFLPIKSVHFCCA; C4m#19-5th4w-NN6-75)
	3.4	C4m#19-5th2w-NNS6-93 (GGCFHPFLPIQSRHFCCR; C4m#19-5th2w-NNS6-93)
24.9		C4m#19-5th4w-NN6-79 (GGCWHPVLPIRSCHFCAV; C4m#19-5th4w-NN6-79)
21.4		C4m#19-5th4w-NN6-87 (GGCLHPVLPIRSFHFCWR; C4m#19-5th4w-NN6-87)
7.5		C4m3127-4th-NNS6-30 (GGCWHPCLPILSPHFCPR; C4m3127-4th-NNS6-30) [Clone C4m3127-4th-NNS6-30]
27.6		C4m#19-5th4w-NN6-59 (GGCLHPHLPIWSLHFCPL; C4m#19-5th4w-NN6-59)
16.7		C4m#19-5th4w-NN6-30 (GGCWHPFLPIMSFHFCPY; C4m#19-5th4w-NN6-30)
9.4		C4m#19-5th2w-NNS6-37 (GGCIHPFLPIWSIHFCSR; C4m#19-5th2w-NNS6-37)
29.5		C4m#19-5th4w-NN6-65-1 (GGCWHPFLPISSPHFCGR; left off: large carriers; small tags and cut ends)
33.3		C4m#19-5th4w-NN6-54 (GGCLHPGLPIRSLHFCPR; C4m#19-5th4w-NN6-54)
12.8		C4m3127-4th-NNS6-2 (GGCWHPSLPIYSPHFCPL; C4m3127-4th-NNS6-2) [Clone C4m3127-4th-NNS6-2]
30.0		C4m#19-5th4w-NN6-92-1 (GGCVHPFLPIRSVHFCAL; C4m#19-5th4w-NN6-92-1)
